Among the data in paper PMC5910193 are Kd and fold R-PE binding capability against G9 values, retold here.

pKd: −log10 of the molar value.

Experiment [1] concerns the target PEbody with N-terminal 6x His tag (human) (UniProt P02751). The experiment in a line: BLI.
The target of experiment [2] is Single4 monobody displayed on the yeast surface (human) (UniProt P02751). The experiment in a line: flow cytometry on cells. On the technique in general: A flow cytometer gives signals particle by particle.

In the case of R-Phycoerythrin (complex), in experiment [1], the pKd (commonly the Kd on a negative log10 scale, so that one unit is a factor of ten) is 8.24. In experiment [2], this substance gave a fold R-PE binding capability against G9 of 500 fold.
